B1: MsrA: recombinant MsrA domain, his-tag removed (SEQ ID NO:28), given to mice with Freund's adjuvant (protein)
chain: GSHMKHSFYKPDTQKKDSAIMNTRTIYLAGGCFWGLEAYFQRIDGVVDAVSGYANGNTENPSYEDVSYRHTGHAETVKVTYDADKLSLDDILQYYFRVVDPTSLNKQGNDTGTQYRSGVYYTDPAEKAVIAAALKREQQKYQLPLVVENEPLKNFYDAEEYHQDYLIKNPNGYCHIDIRKADEPLPG
modifications: Recombinant MsrA
B2: MsrB: recombinant MsrB domain, his-tag removed (SEQ ID NO:31), given to mice with Freund's adjuvant (protein)
chain: GSHMKAATYKKPSDAELKRTLTEEQYQVTQNSATEYAFSHEYDHLFKPGIYVDVVSGEPLFSSADKYDSGCGWPSFTRPIDAKSVTEHDDFSFNMRRTEVRSRAADSHLGHVFPDGPRDKGGLRYCINGASLKFIPLEQMDAAGYGALKGKVK
modifications: Recombinant MsrB

Tests used:
[1] = target: T1, recombinant MsrA/B (methionine sulfoxide reductase) from N. gonorrhoeae 1291, amino acids 30-522 of SEQ ID NO: 1 (recombinant with 6-His tag SEQ ID NO: 15); tag (Neisseria gonorrhoeae, UniProt P14930, E520K); assay: Surface plasmon resonance (SPR) affinity assay of Met(O) binding to immobilized MsrA/B; design: species or system Neisseria gonorrhoeae 1291; conditions: read-out: KD (equilibrium dissociation constant), Biacore T200, MsrA/B immobilized on CM5 chip, Met(O) 0.16 to 100 nM, single cycle kinetics, absence of serum/antibody
T1 construct: 6-His tag (N); thrombin cleavage site (N); made in house; host or cells: E. coli BL21 Star (DE3)pLysS
T1 sequence (P14930 with tags, fused parts or gaps E520K): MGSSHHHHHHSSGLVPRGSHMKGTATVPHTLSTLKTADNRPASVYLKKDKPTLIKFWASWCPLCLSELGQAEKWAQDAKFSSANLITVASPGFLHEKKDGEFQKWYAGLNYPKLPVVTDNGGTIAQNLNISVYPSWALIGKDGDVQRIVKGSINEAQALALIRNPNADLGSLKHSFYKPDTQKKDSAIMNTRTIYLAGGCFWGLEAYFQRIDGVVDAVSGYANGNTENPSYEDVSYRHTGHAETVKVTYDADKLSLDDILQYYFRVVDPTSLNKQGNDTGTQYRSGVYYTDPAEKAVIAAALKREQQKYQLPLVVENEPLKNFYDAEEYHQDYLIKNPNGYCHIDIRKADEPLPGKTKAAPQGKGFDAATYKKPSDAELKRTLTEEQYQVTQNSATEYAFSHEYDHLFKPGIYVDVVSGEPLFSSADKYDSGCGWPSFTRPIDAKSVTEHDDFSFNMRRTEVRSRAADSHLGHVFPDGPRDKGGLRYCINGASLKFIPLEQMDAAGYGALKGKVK
Method: The msr gene was amplified from N. gonorrhoeae 1291 using primers msrexp_NdeIF (5′-[…]-3′; SEQ ID NO:20) and msrexp_XhoIR (5′-[…]-3′; SEQ ID NO:21) and the resulting PCR product was cloned into pET15b to obtain a Msr expression construct pET15bmsr. The construct pET15bmsr was transformed into E. coli BL21 Star (DE3)pLysS host strain (Novagen) and MsrA/B was overexpressed and purified. Briefly, expression was induced by 0.1 mM IPTG at an optical density at 600 nm (OD600) of 0.4 for 24 hr at room temperature. Cell cultures were harvested and the cell pellet was re-suspended in buffer A. Cells were lysed by sonication, centrifuged and the supernatant was applied to a column packed with TALON™ metal affinity resins (Clontech laboratories, Inc). […] Fractions were collected and analyzed by 4-12% NuPAGE® Novex Bis-Tris Gels (Invitrogen) stained with Coomassie Blue, and by Western blot of anti-His polyclonal antisera. […]
SPR assays were performed using a Biacore T200 for affinity analysis and a Pall Pioneer FE for competition assays. […] Data was analyzed using the Biacore T200 evaluation software package. […] Data was collected using the Pioneer Software package and analyzed using Qdat analysis software. The percentage blocking was calculated based on the relative RMax of the Met(O) injection with and without serum, and the serum with and without Met(O). […]

[2] = tested on: whole cell N. gonorrhoeae 1291; assay: Whole cell ELISA of mouse antisera against N. gonorrhoeae 1291 strains; format: binding; conditions: antisera of 5 mice immunized with Freund's adjuvant; for Whole cell ELISA titre to the mutant strain: 1291 msr::kan mutant; for Whole cell ELISA average titre to 1291 Δmsr_C: complemented strain; for Whole cell ELISA average titre to 1291: wild-type 1291
Method: Groups of 10 female BALB/c mice (6 weeks old) were immunized subcutaneously with 5 μg of recombinant MsrA/B with either Alhydrogel® (aluminium hydroxide, InvivoGen) or Freund's (FCA/FIA, Sigma-Aldrich) adjuvant on days 0, 21, and 28. Terminal bleeds were collected on day 42. For Freund's adjuvant, Freund's complete adjuvant (FCA) was used on day 0 and Freund's incomplete adjuvant (FIA) was used in the boosts of day 21 and 28. Pre-bleed of each mouse was collected 4 days before immunization. This study was carried out in accordance with the recommendations of the Australian Code for the Care and Use of Animals for Scientific Purposes, the Griffith University Animal Ethics Committee (AEC). The protocol was approved by the Griffith University AEC.
For whole cell ELISA, bacteria were grown on BHI or GC plates for 16 hr. Cells were harvested and resuspended in PBS at an OD600 of 0.2. Microtitre plate wells were filled with 50 μl of the bacterial suspension and dried at room temperature overnight in the laminar flow cabinet. The bacteria in the dried wells were then heat-killed for 1 hr in 56° C. For recombinant protein ELISA, wells of plates were coated with 100 ng of purified recombinant MsrA/B protein in 100 μl of coating buffer (0.5M carbonate/bicarbonate buffer, pH 9.6) for 1 hr at room temperature. All ELISAs were performed with mouse pre-immune or MsrA/B immunized sera, and secondary antibody as specified in the results (polyclonal anti-mouse Ig HRP (Dako) or IgG1, IgG2a, IgG2b, IgG3 or IgM HRP (Thermofisher Scientific)). The substrate TMB (3,3′, 5,5;-tetramethylbenzidine) solution (Thermofisher Scientific) was used as per manufacture's instruction. Equal amount of 1 N hydrochloric acid was added to stop the reaction. Absorbance was read in a TECAN Model Infinite 200 Pro plate reader at 450 nm.

Molecule | Kd [1] | Whole cell ELISA titre to the mutant strain [2] | Whole cell ELISA average titre to 1291 Δmsr_C [2] | Whole cell ELISA average titre to 1291 [2]
C[S+]([O-])CC[C@H](N)C(=O)O (stereo partly shown) [Met(O), methionine sulfoxide] | 15.4 ± 3.7 nM | – | – | –
B1 | – | 1,000 | 20,000 | 10,000
B2 | – | 1,000 | 40,000 | 16,000
